# From patent US20210009663A1 (published 2021)
# How the values were obtained:
# [1] = biological target: T1, Zika virus envelope protein, strain H/PF/2013 (French Polynesia 2013) (Zika virus); assay: cell-based or functional assay
# [2] = biological target: T1, Zika virus envelope protein, strain …
# T1 sequence (A0A024B7W1 291-794): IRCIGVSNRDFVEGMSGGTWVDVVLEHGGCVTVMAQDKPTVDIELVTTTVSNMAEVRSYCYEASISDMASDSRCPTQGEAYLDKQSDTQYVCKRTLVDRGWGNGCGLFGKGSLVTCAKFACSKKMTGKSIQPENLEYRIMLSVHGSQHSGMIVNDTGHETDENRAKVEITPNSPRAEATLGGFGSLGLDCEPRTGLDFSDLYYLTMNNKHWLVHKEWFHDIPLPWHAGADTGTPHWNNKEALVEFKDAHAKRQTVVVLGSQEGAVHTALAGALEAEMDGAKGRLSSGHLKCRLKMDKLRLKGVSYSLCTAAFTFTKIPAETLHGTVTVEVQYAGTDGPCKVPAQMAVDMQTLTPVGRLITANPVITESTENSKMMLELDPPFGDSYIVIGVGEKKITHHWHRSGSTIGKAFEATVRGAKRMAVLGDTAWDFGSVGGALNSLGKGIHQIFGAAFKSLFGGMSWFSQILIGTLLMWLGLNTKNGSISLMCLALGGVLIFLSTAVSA
Binder,"ADE in THP1.2S cells, viral titers at peak enhancement [1] [fold]",PRNT50 [1] [µg/mL],Kd [2] [µg/mL]
"mAb 8 (antibody, V domains shown) VH: EVQLLESGGGLVQPGGSLRLSCAASGFSFSTYSMHWVRQAPGKGLEWVSAISGEGDSAYYADSVKGRFTISRDNSKNTLYLQMNKVRAEDTAVYYCVGGYSNFYYYYTMDAWGQGTMVTVSS VL: DIVMTQSPASLSLSPGERATLSCRATQSISTFLAWYQQKPGQAPRLLIYDASTRASGIPARFSGSRSGTDFTLTITRLEPEDFAVYYCQQRYNWPPYSFGQGTKLEIK",≥ 3,5.09,
"fusion loop targeting pan-flavivirus antibody 4G2 (antibody, V domains shown) VH: EVQLQQSGPELVKPGTSVKISCKTSGYTFTEYTIHWVKQSHGKSLAWIGGIDPNSGGTNYSPNFKGKATLTVDKSSSTAYMDLRSLSSEDSAVYFCARIYHYDGYFDVWGAGTAVTVSS VL: DIKMTQSPSSMYASLGERVTITCKASQDINSYLTWFQQKPGKSPKTLIYRANRLIDGVPSRFSGSGSGQDYSLTISSLDYEDMGIYYCLQYDEFPPTFGGGTKLEIKR",,,10.3
